Experiment [1] addresses T1, CCL21_HUMAN (human, UniProt O00585 24-134).
T1 sequence: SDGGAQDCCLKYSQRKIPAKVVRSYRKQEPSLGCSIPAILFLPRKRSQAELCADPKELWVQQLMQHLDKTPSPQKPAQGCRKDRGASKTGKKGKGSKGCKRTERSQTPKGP
Description: BLI.

The target in experiment [2] is CCL2_HUMAN (human, UniProt P13500 24-99). Description: BLI.
For experiment [3], the target named is T2, CCL3_HUMAN (human, UniProt P10147 24-92).
T2 sequence: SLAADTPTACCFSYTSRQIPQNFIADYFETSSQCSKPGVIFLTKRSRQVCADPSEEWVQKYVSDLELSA
Description: BLI.

The target in experiment [4] is T3, CXCL1_HUMAN (human, UniProt P09341 35-107).
T3 sequence: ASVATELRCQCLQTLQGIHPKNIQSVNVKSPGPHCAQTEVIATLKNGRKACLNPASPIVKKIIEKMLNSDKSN
Description: BLI.

Experiment [5] deals with T4, CXCL10_HUMAN (human, UniProt P02778 22-98).
T4 sequence: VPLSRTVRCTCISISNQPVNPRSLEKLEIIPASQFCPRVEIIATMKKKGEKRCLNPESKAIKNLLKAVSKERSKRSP
Description: BLI.

The target in experiment [6] is T5, CXCL7_HUMAN (human, UniProt P02775 59-128).
T5 sequence: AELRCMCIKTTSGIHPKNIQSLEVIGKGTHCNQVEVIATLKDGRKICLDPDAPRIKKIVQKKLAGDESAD
The experiment is described as follows: BLI.

Experiment [7] concerns the target T6, CXCL5_HUMAN (human, UniProt P42830 41-114).
T6 sequence: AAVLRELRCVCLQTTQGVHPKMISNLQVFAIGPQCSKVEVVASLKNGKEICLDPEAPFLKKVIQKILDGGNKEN
The experiment is described as follows: BLI.

In experiment [8] the target is T7, CXCL3_HUMAN (human, UniProt P19876 35-107).
T7 sequence: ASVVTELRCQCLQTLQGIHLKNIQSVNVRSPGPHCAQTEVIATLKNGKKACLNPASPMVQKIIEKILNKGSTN
The experiment is described as follows: BLI.

Experiment [9] addresses T8, CXCL9_HUMAN (human, UniProt Q07325 23-125).
T8 sequence: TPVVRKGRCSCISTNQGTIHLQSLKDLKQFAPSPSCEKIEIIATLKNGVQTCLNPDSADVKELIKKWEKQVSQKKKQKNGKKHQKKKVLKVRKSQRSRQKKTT
Description: BLI.

Experiment [10] has as its target T9, CXCL13_HUMAN (human, UniProt O43927 23-109).
T9 sequence: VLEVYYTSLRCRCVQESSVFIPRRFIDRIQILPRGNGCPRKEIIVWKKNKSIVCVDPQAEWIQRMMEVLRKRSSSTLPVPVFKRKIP
Description: BLI.

For experiment [11], the target named is T10, CXCL14_HUMAN (human, UniProt O95715 35-111).
T10 sequence: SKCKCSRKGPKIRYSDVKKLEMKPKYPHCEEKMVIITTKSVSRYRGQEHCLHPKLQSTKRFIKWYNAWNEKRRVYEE
The experiment is described as follows: BLI.

Experiment [12] concerns the target T11, CXCL2_HUMAN (human, UniProt P19875 35-107).
T11 sequence: T3 sequence with S2P, V3L, P20L, N27K, R48Q, I58M, N68K, S69N, D70G
Description: BLI.

Experiment [13] concerns the target T12, CXCL6_HUMAN (human, UniProt P80162 38-114).
T12 sequence: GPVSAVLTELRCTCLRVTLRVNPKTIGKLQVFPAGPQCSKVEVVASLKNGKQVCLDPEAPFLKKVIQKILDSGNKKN
The experiment is described as follows: BLI.

In experiment [14] the target is CXCL12_HUMAN (human, UniProt P48061 22-89). The experiment is described as follows: BLI.
For experiment [15], the target named is T13, CXCL11_HUMAN (human, UniProt O14625 22-94).
T13 sequence: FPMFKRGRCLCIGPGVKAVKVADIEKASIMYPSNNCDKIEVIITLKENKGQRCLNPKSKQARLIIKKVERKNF
The experiment is described as follows: BLI.

The target in experiment [16] is T14, CXCL8_HUMAN (human, UniProt P10145 28-99).
T14 sequence: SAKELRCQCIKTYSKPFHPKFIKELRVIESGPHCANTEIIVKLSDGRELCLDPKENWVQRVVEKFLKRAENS
The experiment is described as follows: BLI.

For experiment [17], the target named is T15, CXCL4_HUMAN (human, UniProt P02776 32-101).
T15 sequence: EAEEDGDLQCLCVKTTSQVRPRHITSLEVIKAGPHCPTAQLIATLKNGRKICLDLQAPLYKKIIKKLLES
The experiment is described as follows: BLI.

For experiment [18], the target named is T3, CXCL1_HUMAN. The experiment is described as follows: BLI [Cont.) C].
Experiment [19] has as its target T4, CXCL10_HUMAN. Description: BLI [Cont.) C].
For experiment [20], the target named is T6, CXCL5_HUMAN. Description: BLI [Cont.) C].
The target of experiment [21] is T7, CXCL3_HUMAN. The experiment is described as follows: BLI [Cont.) C].
Experiment [22] addresses T10, CXCL14_HUMAN. The experiment is described as follows: BLI [Cont.) C].
Experiment [23] concerns the target T11, CXCL2_HUMAN. Description: BLI [Cont.) C].
In experiment [24] the target is T14, CXCL8_HUMAN. The experiment is described as follows: BLI [Cont.) C].

Residue numbers refer to the chain shown, from its start. In names and notes the source's numbering stands.

Sequence of CCL2_HUMAN (P13500 24-99 limits assumed): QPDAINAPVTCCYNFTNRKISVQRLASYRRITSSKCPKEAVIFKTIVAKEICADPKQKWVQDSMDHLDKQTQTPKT
Sequence of CXCL12_HUMAN (P48061 22-89 limits assumed): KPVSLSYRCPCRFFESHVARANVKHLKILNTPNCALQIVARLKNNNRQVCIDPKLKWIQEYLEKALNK

B1: P991:G4S:P1156 (designed binder)
chain: ENGEGTTQPDYDNSTDYYNYEDFKCTCPAPHLNNTNGTVMKPIGCYYTCNVTRCTAPDTYPCYNLTEHQAKNLTTSPTTLCAVGNCDHGICVPNGTKELCFKAPNLEEGGGGSADDDNELFTVQYCGMNCTKDEGGTWTGCTGKKEGCKCYHESGKNYGLCLSTEYTDFSQYGNPSDSEIEAAKPKRSDTLSH
In the case of B1, the equilibrium dissociation constant (Kd) turned out to be 18.2 nM in [1]; 24.8 nM in experiment [2]; 2.22 nM in experiment [3]; 5.08 nM in [4]; 89.9 nM in experiment [8]; 3.56 nM in experiment [16]. Moreover, the “RT” value is 17.7 min in experiment [1]; 4.02 min in [2]; 37.1 min in experiment [3]; 21 min in experiment [4]; 2.32 min in [7]; 3.28 min in [8]. Also, the “RT” value worked out at 2.32 min in experiment [12] and 36.8 min in experiment [16]. Further, the binding result in [5], in [6], in [9], in experiment [10], in experiment [11] and in [13] was “no binding” in each case. Further, the binding result in experiment [14], in experiment [15] and in experiment [17] was “no binding” each time.

B2: P1156:G4S:P991 (designed binder)
chain: ADDDNELFTVQYCGMNCTKDEGGTWTGCTGKKEGCKCYHESGKNYGLCLSTEYTDFSQYGNPSDSEIEAAKPKRSDTLSHGGGGSENGEGTTQPDYDNSTDYYNYEDFKCTCPAPHLNNTNGTVMKPIGCYYTCNVTRCTAPDTYPCYNLTEHQAKNLTTSPTTLCAVGNCDHGICVPNGTKELCFKAPNLEE
notes: also called two-warhead evasin
B2: the Kd was found to be 19.9 nM in experiment [1]; 32.1 nM in experiment [2]; 1.89 nM in experiment [3]; 2.72 nM in experiment [4]; 61.4 nM in experiment [8]; 1.5 nM in [16]. Also, the “RT” value was determined as 15.3 min in [1]; 3.25 min in experiment [2]; 38.2 min in [3]; 30.3 min in [4]; 3.08 min in experiment [7]; 3.61 min in [8]. The “RT” value in experiment [12] was determined as 2.89 min; in [16] it was 71.3 min. In addition, the binding result in experiment [5], in [6], in experiment [9], in experiment [10], in experiment [11] and in experiment [13] was “no binding” in each case. The binding result in [14], in experiment [15] and in [17] was “no binding” throughout.

B3: P1243:G4S:P1156 (designed binder)
chain: RNHTEDNSTEYYDYEEARCACPARHLNNTNGTVLKLLGCHYFCNGTLCTAPDGYPCYNLTAQQVRTLTTYPNTSCAVGVCMKGTCVKNGTMEQCFKTPGGGGSADDDNELFTVQYCGMNCTKDEGGTWTGCTGKKEGCKCYHESGKNYGLCLSTEYTDFSQYGNPSDSEIEAAKPKRSDTLSH
For B3, the results for the Kd in experiment [18] and in [24] were 17.4 nM and 7.63 nM, respectively. Moreover, the binding result in [19], in experiment [20], in experiment [21], in experiment [22] and in experiment [23] was “no binding (tested: 300 nM)” throughout.

For the origin of these results see US20240034757A1 (OXFORD UNIVERSITY INNOVATION, published 2024).
